Data from patent US20100105567A1, “NOVEL CAPTURE AGENTS FOR BINDING A LIGAND” (priority 2005, published 2010).
No end group written: not given here. TAMRA = rhodamine dye label at the N-terminus (mixture of 5- and 6-isomers)

What was measured:
Assay type in all cases: physicochemical
[1] = pH resistance of peptide deposited onto polypropylene; conditions: maximal retention at low and high pH, minimal around pH 6.5
Description: The pH resistance of peptide 2DOS-2 (see above) deposited onto a polypropylene hydrophobic surface was investigated:
Twelve 50 μl aliquots of peptide 2DOS-2 in 10 mM tris-HCl (pH 8.0) in 50% (v/v) aqueous acetonitrile were dried down in the wells of a Costar microtitre plate.
(§1) The peptide samples were allowed to evaporate to dryness in the dark.
The dried peptide samples in the first eleven wells were incubated with 200 μl of 100 mM phosphate buffer for 30 minutes at room temperature according to the scheme shown in Table 7:
All supernatants were pipetted off and the residual surface-bound peptides in all twelve wells were finally resuspended in 50 μl of 10,mM tris-HCl (pH 8.0) in 50% (v/v) aqueous acetonitrile and the microtitre plate was imaged at 200 μm resolution on a Typhoon Trio Plus variable mode imager (Amersham Biosciences) with the green (532 nm) laser and the 580 BP 30 filter at the PMT voltages indicated below and at normal sensitivity. The scan height was set at +3 mm and the sample was pressed during scanning.
(§2) The fluorescence images were analysed using ImageQuant TL v2003.03 (Amersham Biosciences).
Quantification data for peptide 2DOS-2 retention (using data from the 300V scan) are given in Table 8 and graphically in FIG. 16: […]

[2] = Time-dependent persistence of peptide on polypropylene in aqueous buffer; conditions: 1 M NaCl/10 mM tris-HCl (pH 8.0)
Description: The time-dependent persistence of peptide 2DOS-2 (see above) deposited onto a polypropylene hydrophobic surface in the presence of aqueous buffer was investigated as shown below:
Twelve 100 μl aliquots of 5 μM peptide 2DOS-2 in 5 mM tris-HCl (pH 8.0) in 75% (v/v) aqueous acetonitrile were dispensed to the wells of the top row of a Costar microtitre plate.
as §1
The dried peptide samples in wells 1-10 were incubated with 250 μl of 1 M NaCl in 10 mM tris-HCl (pH 8.0) for the time indicated below at room temperature. All supernatants were pipetted up and down 8 times after incubation and the supernatants were then removed and placed in the wells of the bottom row of the microtitre plate. […]
as §2
Fluorescence data for the time-dependent persistence of peptide 2DOS-2 deposited onto a polypropylene hydrophobic surface in the presence of aqueous buffer are shown in FIG. 17: […]

[3] = Retention of arrayed peptides on a polypropylene sheet after successive washes; conditions: for Corrected signal: slide background subtracted
Description: Further experiments were undertaken to investigate the retention of peptides P1-1 to P1-5 and P2-1 to P2-2, shown in Table 3, on a polypropylene surface.
The polypropylene sheet was wiped with 50% (v/v) aqueous acetonitrile prior to use.
8×replicate 20 nl volumes of 1 μM peptides P1-1 to P1-5 and P2-1 to P2-2 and TAMRA in dimethyl sulphoxide (DMSO) were dispensed at 1 mm spacing to a 3″×1″×1 mm polypropylene sheet using the Piezorray system (PerkinElmer LAS). 500 drops were pre-dispensed using the ‘side shoot’ option and the tuning was set to 72V for 30 μs.
The slide was imaged at 10 μm resolution on a Typhoon Trio Plus variable mode imager (Amersham Biosciences) with the green (532 nm) laser and the 580 BP 30 filter at a PMT voltage of 600 V and at normal sensitivity. The scan height was set at the platen and the samples were pressed during scanning. The fluorescence image was analysed using ImageQuant TL v2003.03 (Amersham Biosciences).
The lower half of the slide (containing the test array) was then washed in 100 ml of 1 M NaCl containing 10 mM tris-HCl (pH 8.0) for one minute and were re-scanned as described above.
The same half of the slide was then washed for a second time in 100 ml of 1 M NaCl containing 10 mM tris-HCl (pH 8.0) for 30 minutes and re-scanned as described above.
The same half of the slide was then washed for a third time in 100 ml of water for 30 minutes and re-scanned as described above.

[4] = Control array (not washed), scan after first wash
[5] = Control array (not washed), scan after second wash
[6] = Control array (not washed), scan after third wash
[7] = Test array, after first wash (1 M NaCl, 10 mM tris-HCl pH 8.0, one minute)
[8] = Test array, after second wash (1 M NaCl, 10 mM tris-HCl pH 8.0, 30 minutes)
[9] = Test array, after third wash (water, 30 minutes)

| Substance | retention on a polypropylene surface versus pH (in words) [1] | retention on a hydrophobic polypropylene surface over time (in words) [2] | Average fluorescence [3, 4] | Corrected signal [3, 4] | Average fluorescence [3, 5] | Corrected signal [3, 5] | Average fluorescence [3, 6] | Corrected signal [3, 6] | Average fluorescence [3, 7] | Corrected signal ([3]; Test array, after first wash) | Average fluorescence [3, 8] | Corrected signal ([3]; Test array, after second wash) | Average fluorescence [3, 9] | Corrected signal ([3]; Test array, after third wash) | retention on polypropylene sheet (in words) ([3]; compared among P1-1 to P1-5, chain length of 19 amino acids) |
| --- | --- | --- | --- | --- | --- | --- | --- | --- | --- | --- | --- | --- | --- | --- | --- |
| N-TAMRA-Phe-Asp-Phe-Ala-Phe-Ser-Phe-Lys-Phe-C ({TAMRA}-FDFAFSFKF; not fully specified (C-terminus)) [Peptide 2DOS-2] | stable over a broad range of pH values | stable for extended periods of time | – | – | – | – | – | – | – | – | – | – | – | – | – |
| TAMRA-F-G-F-G-F-G-F-G-F-G-F-S-F-A-F-D-F-G-F ({TAMRA}-FGFGFGFGFGFSFAFDFGF) [Peptide P1-5] | – | – | 199,347,483 | 52,655,810 | 190,847,825 | 53,567,975 | 183,492,293 | 49,585,053 | 201,991,732 | 47,493,774 | 167,865,473 | 35,418,169 | 147,812,043 | 23,514,817 | highest retention |
| TAMRA-F-G-F-G-F-G-F-G-F-S-F-A-F-D-F-G-F ({TAMRA}-FGFGFGFGFSFAFDFGF) [Peptide P1-4] | – | – | 187,287,630 | 40,595,958 | 179,942,418 | 42,662,569 | 176,102,487 | 42,195,247 | 189,823,310 | 35,325,352 | 159,100,527 | 26,653,223 | 135,681,173 | 11,383,947 | – |
| TAMRA-F-G-F-G-F-G-F-S-F-A-F-D-F-G-F ({TAMRA}-FGFGFGFSFAFDFGF) [Peptide P1-3] | – | – | 192,743,469 | 46,051,796 | 187,310,655 | 50,030,806 | 184,219,147 | 50,311,907 | 171,197,973 | 16,700,014 | 148,725,456 | 16,278,152 | 125,717,642 | 1,420,417 | – |
| TAMRA-F-G-F-G-F-S-F-A-F-D-F-G-F ({TAMRA}-FGFGFSFAFDFGF) [Peptide P1-2] | – | – | 200,280,129 | 53,588,457 | 196,080,891 | 58,801,042 | 185,727,868 | 51,820,628 | 170,078,218 | 15,580,260 | 135,695,639 | 3,248,336 | 126,193,156 | 1,895,931 | – |
| TAMRA-F-G-F-S-F-A-F-D-F-G-F ({TAMRA}-FGFSFAFDFGF) [Peptide P1-1] | – | – | 244,263,013 | 97,571,341 | 225,863,933 | 88,584,083 | 218,342,010 | 84,434,769 | 157,624,537 | 3,126,578 | 127,216,792 | −5,230,512 | 124,941,941 | 644,716 | – |
